# Positions count from the first letter of the chain named.
# B1: mSP34 mIgG2a, homodimeric antibody without FAST-Ig mutations (antibody, V domains shown)
# VH: EVQLVESGGGLVQPKGSLKLSCAASGFTFNTYAMNWVRQAPGKGLEWVARIRSKYNNYATYYADSVKDRFTISRDDSQSILYLQMNNLKTEDTAMYYCVRHGNFGNSYVSWFAYWGQGTLVTVSA
# VL: QAVVTQESALTTSPGETVTLTCRSSTGAVTTSNYANWVQEKPDHLFTGLIGGTNKRAPGVPARFSGSLIGDKAALTITGAQTEDEAIYFCALWYSNLWVFGGGTKLTVL
# notes: VH of the original mouse antibody mSP34; mouse IgG2a (mIgG2a) heavy chain constant region; numbers count on: Eu numbering; VL (lambda) of the original mouse antibody mSP34; mouse lambda light chain constant region (CL); Whole IgG of one HC and one LC; also called anti-CD3; H2L2H2L2; source: Expi293F, transiently expressed, purified (Ab-Capcher MAG2, MonoSpin ProA or MonoSpin ProG); copies: 2 + 2
# B2: mUCHT1 mIgG2a, homodimeric antibody without FAST-Ig mutations (antibody, V domains shown)
# VH: EVQLQQSGPELVKPGASMKISCKASGYSFTGYTMNWVKQSHGKNLEWMGLINPYKGVSTYNQKFKDKATLTVDKSSSTAYMELLSLTSEDSAVYYCARSGYYGDSDWYFDVWGQGTTLTVFS
# VL: DIQMTQTTSSLSASLGDRVTISCRASQDIRNYLNWYQQKPDGTVKLLIYYTSRLHSGVPSKFSGSGSGTDYSLTISNLEQEDIATYFCQQGNTLPWTFAGGTKLEIK
# notes: VH of the original mouse antibody mUCHT1; mouse IgG2a (mIgG2a) heavy chain constant region; numbers count on: Eu numbering; VL of the original mouse antibody mUCHT1; mouse kappa light chain constant region (CL); Whole IgG of one HC and one LC; also called anti-CD3; H2L2H2L2; source: Expi293F, transiently expressed, purified (Ab-Capcher MAG2, MonoSpin ProA or MonoSpin ProG); copies: 2 + 2
# B3: m4D5 mIgG2a V1+C19, homodimeric antibody with FAST-Ig V1+C19 mutations (antibody, V domains shown)
# VH: QVQLQQSGPELVKPGASLKLSCTASGFNIKDTYIHWVKKRPEQGLEWIGRIYPTNGYTRYDPKFQDKATITADTSSNTAYLQVSRLTSEDTAVYYCSRWGGDGFYAMDYWGQGASVTVSS
# VL: DIVMTQSHKFMSTSVGDRVSITCKASQDVNTAVAWYQEKPGHSPKLLIYSASFRYTGVPDRFTGSRSGTDFTFTISSVQAEDLAVYYCQQHYTTPPTFGGGTKVEIK
# notes: VH of m4D5; mouse IgG2a (mIgG2a) heavy chain constant region; K147 kept; numbers count on: Eu numbering; VL of m4D5; mouse kappa light chain constant region (CL); numbers count on: Kabat numbering; Whole IgG of one HC and one LC; also called anti-HER2; H1L1H1L1; source: Expi293F, transiently expressed, purified (Ab-Capcher MAG2, MonoSpin ProA or MonoSpin ProG); copies: 2 + 2
# B4: m2C4 mIgG2a V1+C19, homodimeric antibody with FAST-Ig V1+C19 mutations (antibody, V domains shown)
# VH: EVQLQQSGPELVKPGTSVKISCKASGFTFTDYTMDWVKKSHGKSLEWIGDVNPNSGGSIYNQRFKGKASLTVDRSSRIVYMELRSLTFEDTAVYYCARNLGPSFYFDYWGQGTTLTVSS
# VL: DTVMTQSHKIMSTSVGDRVSITCKASQDVSIGVAWYQERPGQSPKLLIYSASYRYTGVPDRFTGSGSGTDFTFTISSVQAEDLAVYYCQQYYIYPYTFGGGTKLEIK
# notes: VH of m2C4; mouse IgG2a (mIgG2a) heavy chain constant region; K147 kept; numbers count on: Eu numbering; VL of m2C4; mouse kappa light chain constant region (CL); numbers count on: Kabat numbering; Whole IgG of one HC and one LC; also called anti-HER2; H1L1H1L1; source: Expi293F, transiently expressed, purified (Ab-Capcher MAG2, MonoSpin ProA or MonoSpin ProG); copies: 2 + 2
# B5: mOKT3 mIgG2a V1+C19, homodimeric antibody with FAST-Ig V1+C19 mutations (antibody, V domains shown)
# VH: not shown
# VL: QIVLTQSPAIMSASPGEKVTMTCSASSSVSYMNWYQKKSGTSPKRWIYDTSKLASGVPAHFRGSGSGTSYSLTISGMEAEDAATYYCQQWSSNPFTFGSGTKLEIN
# notes: VH of mOKT3; mouse IgG2a (mIgG2a) heavy chain constant region; numbers count on: Eu numbering; VL of mOKT3; mouse kappa light chain constant region (CL); numbers count on: Kabat numbering; Whole IgG of one HC and one LC; also called anti-CD3; H2L2H2L2; source: Expi293F, transiently expressed, purified (Ab-Capcher MAG2, MonoSpin ProA or MonoSpin ProG); copies: 2 + 2
# B6: mHIT3a mIgG2a V1+C19, homodimeric antibody with FAST-Ig V1+C19 mutations (antibody, V domains shown)
# VH: QVQLQESGAELARPGASVKMSCKASGYTFTRYTMHWVKERPGQGLEWIGYINPSRGYTNYNQKFKDKATLTTDKSSSTAYMELTRLTSEDSAVYYCARYYDDHYCLDYWGQGTTVTVSS
# VL: B5 VL with Q1D, V3E, H60R, R62S, I105L, N106K
# notes: VH of mHIT3a; mouse IgG2a (mIgG2a) heavy chain constant region; numbers count on: Eu numbering; VL of mHIT3a; mouse kappa light chain constant region (CL); numbers count on: Kabat numbering; Whole IgG of one HC and one LC; also called anti-CD3; H2L2H2L2; source: Expi293F, transiently expressed, purified (Ab-Capcher MAG2, MonoSpin ProA or MonoSpin ProG); copies: 2 + 2
# B7: m12F6 mIgG2a V1+C19, homodimeric antibody with FAST-Ig V1+C19 mutations (antibody, V domains shown)
# VH: QVQLQQSGAELARPGASVKMSCKASGYTFTSYTMHWVKERPGQGLEWIGYINPSSGYTKYNQKFKDKATLTADKSSSTAYMQLSSLTSEDSAVYYCARWQDYDVYFDYWGQGTTLTVSS
# VL: QIVLSQSPAILSASPGEKVTMTCRASSSVSYMHWYQKKPGSSPKPWIYATSNLASGVPARFSGSGSGTSYSLTISRVEAEDAATYYCQQWSSNPPTFGGGTKLETK
# notes: VH of m12F6; mouse IgG2a (mIgG2a) heavy chain constant region; numbers count on: Eu numbering; VL of m12F6; mouse kappa light chain constant region (CL); numbers count on: Kabat numbering; Whole IgG of one HC and one LC; also called anti-CD3; H2L2H2L2; source: Expi293F, transiently expressed, purified (Ab-Capcher MAG2, MonoSpin ProA or MonoSpin ProG); copies: 2 + 2
# B8: mHIT3a mIgG1, homodimeric antibody without FAST-Ig mutations (antibody, V domains shown)
# VH: B6 VH with E39Q
# VL: B5 VL with Q1D, V3E, K37Q, H60R, R62S, I105L, N106K
# notes: VH of the original mouse antibody mHIT3a; mouse IgG1 (mIgG1) heavy chain constant region; numbers count on: Eu numbering; VL of the original mouse antibody mHIT3a; mouse kappa light chain constant region (CL); Whole IgG of one HC and one LC; also called anti-CD3; H2L2H2L2; source: Expi293F, transiently expressed, purified (Ab-Capcher MAG2 or MonoSpin ProG); copies: 2 + 2
# B9: m12F6 mIgG1, homodimeric antibody without FAST-Ig mutations (antibody, V domains shown)
# VH: B7 VH with E39Q
# VL: B7 VL with K37Q
# notes: VH of the original mouse antibody m12F6; mouse IgG1 (mIgG1) heavy chain constant region; numbers count on: Eu numbering; VL of the original mouse antibody m12F6; mouse kappa light chain constant region (CL); Whole IgG of one HC and one LC; also called anti-CD3; H2L2H2L2; source: Expi293F, transiently expressed, purified (Ab-Capcher MAG2 or MonoSpin ProG); copies: 2 + 2
# B10: m4D5 mIgG1 V1+C19, homodimeric antibody with FAST-Ig V1+C19 mutations (antibody, V domains shown)
# VH: B3 VH
# VL: B3 VL
# notes: VH of m4D5; mouse IgG1 (mIgG1) heavy chain constant region; K147 kept; numbers count on: Eu numbering; VL of m4D5; mouse kappa light chain constant region (CL); numbers count on: Kabat numbering; Whole IgG of one HC and one LC; also called anti-HER2; H1L1H1L1; source: Expi293F, transiently expressed, purified (Ab-Capcher MAG2 or MonoSpin ProG); copies: 2 + 2
# B11: m2C4 mIgG1 V1+C19, homodimeric antibody with FAST-Ig V1+C19 mutations (antibody, V domains shown)
# VH: B4 VH
# VL: B4 VL
# notes: VH of m2C4; mouse IgG1 (mIgG1) heavy chain constant region; K147 kept; numbers count on: Eu numbering; VL of m2C4; mouse kappa light chain constant region (CL); numbers count on: Kabat numbering; Whole IgG of one HC and one LC; also called anti-HER2; H1L1H1L1; source: Expi293F, transiently expressed, purified (Ab-Capcher MAG2 or MonoSpin ProG); copies: 2 + 2
# Key:
# Settings in all cases: both partners purified
# [1] = target: T1, recombinant human CD3ε-CD3δ heterodimeric protein (CD3εδ) (Homo sapiens); assay: SPR; Biacore T200, 37 °C, pH 7.4, PB-P+; antibody captured (630 RU) by anti-mouse IgG (Fc) antibody on a CM4 chip; human CD3εδ as analyte, 1.2-4800 nmol/L; 1:1 binding model (mUCHT1, mSP34)
# T1 construct: human CD3ε of the recombinant CD3εδ heterodimer; human CD3δ of the recombinant CD3εδ heterodimer; source: in-house prepared
# T1 chain 1: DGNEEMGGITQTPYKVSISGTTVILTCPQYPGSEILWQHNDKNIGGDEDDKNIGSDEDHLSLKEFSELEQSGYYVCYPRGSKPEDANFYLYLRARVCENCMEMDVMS
# T1 chain 2: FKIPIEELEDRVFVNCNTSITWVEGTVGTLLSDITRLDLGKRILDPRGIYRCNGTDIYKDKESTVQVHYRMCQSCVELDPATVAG
# [2] = target: T2, recombinant human HER2 (Sino Biological, 10004-H08H) (Homo sapiens, UniProt P04626); assay: SPR; Biacore T200, 37 °C, pH 7.4, PB-P+ (0.05 mol/L Na-phosphate, 0.15 mol/L NaCl, 0.05% P-20); antibody captured (200 RU) by anti-mouse IgG (Fc) antibody on a CM4 chip; human HER2 as analyte, 6.3-100 nmol/L; 1:1 binding model
# T2 construct: human epidermal growth factor receptor 2 (HER2), recombinant; also called human epidermal growth factor receptor 2; source: bought: Sino Biological
# [3] = target: T1, recombinant human CD3ε-CD3δ …; assay: SPR; Biacore T200, 37 °C, pH 7.4, PB-P+; antibody captured (630 RU) by anti-mouse IgG (Fc) antibody on a CM4 chip; human CD3εδ as analyte, 18.8-19,200 nmol/L (mHIT3a, mOKT3) or 75-76,800 nmol/L (m12F6); steady state model
Binder,Kd [2] [nM],Kd [3] [nM],further results
B1,–,–,Kd [1]: 16 nM
B2,–,–,Kd [1]: 1.02 nM
B3,0.96,–,–
B4,1.36,–,–
B5,–,7680,–
B6,–,10400,–
B7,–,16400,–
B8,–,7540,–
B9,–,16800,–
B10,1.27,–,–
B11,0.784,–,–
